The results in this text go back to publication PMC8664846, “Heterogeneous dissociation process of truncated RNAs by oligomerized Vasa helicase” (Communications Biology, 2021).

Data set [1] concerns the target T1, Siwi-piRISC (FLAG-Siwi loaded with piRNA) (Bombyx mori, UniProt A8D8P8 1-899).
T1 construct: Siwi (Silkworm Piwi), PIWI protein of Bombyx mori; In the assay Siwi carried piRNA (exogenous piRNA-4) and was held on the glass through the biotinylated, ATTO647N-labelled target RNA; the only protein chain is Siwi; also called Silkworm Piwi; source: BmN4 cells, purified (anti-FLAG gel column)
T1 sequence (looked up): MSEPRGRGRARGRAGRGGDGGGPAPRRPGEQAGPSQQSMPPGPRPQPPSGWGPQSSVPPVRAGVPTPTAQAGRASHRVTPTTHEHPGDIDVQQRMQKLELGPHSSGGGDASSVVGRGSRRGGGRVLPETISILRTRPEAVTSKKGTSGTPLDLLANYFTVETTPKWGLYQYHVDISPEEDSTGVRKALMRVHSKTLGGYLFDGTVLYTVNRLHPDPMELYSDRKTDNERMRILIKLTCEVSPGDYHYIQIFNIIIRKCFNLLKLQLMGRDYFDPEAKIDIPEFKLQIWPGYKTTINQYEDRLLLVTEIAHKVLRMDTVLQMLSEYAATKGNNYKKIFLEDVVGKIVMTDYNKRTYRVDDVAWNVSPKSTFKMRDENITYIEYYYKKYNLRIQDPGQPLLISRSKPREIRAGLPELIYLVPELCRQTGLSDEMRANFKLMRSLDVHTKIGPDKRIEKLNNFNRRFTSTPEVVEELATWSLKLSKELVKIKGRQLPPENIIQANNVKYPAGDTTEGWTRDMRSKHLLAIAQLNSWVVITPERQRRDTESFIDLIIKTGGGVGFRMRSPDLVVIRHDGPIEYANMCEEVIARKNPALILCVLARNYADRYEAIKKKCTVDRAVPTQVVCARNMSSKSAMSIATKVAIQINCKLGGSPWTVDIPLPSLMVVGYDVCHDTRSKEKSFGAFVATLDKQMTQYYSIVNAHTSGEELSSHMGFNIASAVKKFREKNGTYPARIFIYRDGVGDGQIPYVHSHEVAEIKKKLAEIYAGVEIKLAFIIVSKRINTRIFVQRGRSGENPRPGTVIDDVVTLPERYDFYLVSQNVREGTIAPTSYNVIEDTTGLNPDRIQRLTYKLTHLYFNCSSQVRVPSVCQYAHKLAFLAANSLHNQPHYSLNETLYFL
Description: single-molecule two (or three)-colour colocalisation (TIRF microscopy); premix of 10 nM biotinylated ATTO647N target RNA, 625 nM TMR-Vasa and 380 nM Siwi fixed on the surface by avidin-biotin through the target RNA; exogenous piRNA-4; assay buffer with oxygen scavenger; no ATP. The settings on record: both partners purified.

Data set [2] concerns the molecule itself. Description: single-molecule fluorescence intensity counting (TIRF microscopy); TMR-labelled Vasa adsorbed on poly-L-lysine-coated glass; number of molecules in a spot from the intensity of a single TMR; 30 mM HEPES pH 7.3, 150 mM potassium acetate, 5 mM magnesium acetate, 0.1% NP-40, 500 uM TCEP, oxygen scavengers; with 5 ug/ml yeast RNA further oligomerization.

B1: FLAG-Halo-Vasa (wild-type Bombyx mori Vasa) (enzyme, UniProt O01378 1-601, looked up)
chain: MDDDWDDSCEAVVVPPPPLQNHDSVDEGHSLSRGRGFPSFNEDDEKENGYGERRGRGGRGGGRGRGGRGGRGGSREQHSDYETNGDHDDRGRGERGRGRGRGGRGGGRGGGGGGGDRNDYEDNEIGENGETKKPVTYVPPEPTNDETEIFSSTISSGINFDKFDHIAVKVSGENPPRPIESFETANLRKYVLDNVLKAGYRKPTPIQKNAIPIIMSGRDLMGCAQTGSGKTAAFLVPIINMLLQDPKDLISENGCAQPQVIIVSPTRELTLQIFNEARKFSYGSVLKVAVAYGGTAVRHQGDNIARGCHILVATPGRLHDFVERNRVSFGSVRFVVLDEADRMLDMGFMPSIEKMMLHPTMVETTKRQTLMFSATFPEDIQHLAGRFLNNYLFVAVGIVGGASTDVEQIFIEVTKYEKRNSLKQLIEENDGKRILVFVETKRNADFIAAMLSEQQLLTSSIHGDRMQREREEALQNFKSGKHCILVATAVAARGLDIKNVDIVVNYDLPKSIDEYVHRIGRTGRVGNRGKAVSFYDSDQDLALVADLSKILRQADQSVPDFLKGGGTATFKGNKYGGSDVRNFNNANTAVVDQGQEPEEEW
modifications: TMR-labelled HaloTag ligand on the HaloTag; the immobilised copy in the aggregation measurement also labelled with Biotin-XX-NHS
notes: Vasa, ATP-dependent DEAD-box RNA helicase of Bombyx mori, wild type; Non-fluorescent Vasa was used only in RNA dissociation assays; also called WT-Vasa; TMR-Vasa; source: BmN4 cells, purified (anti-FLAG gel column); not shown: HaloTag, N-terminal, kept
Broadly, the stoichiometry N is the number of molecules, sites or subunits per partner or assembly. Take B1: in data set [1], the binding result is “binds”. The “stoichiometry N” value in data set [2] stood at 2.
